Results from patent US20110008345A1 (GlaxoSmithKline, published 2011).
Read-outs that look alike come from different tables or passages of the source.

Experiments:
[1] = target: T1, recombinant E. coli-expressed human IL-13 (human, UniProt P35225 35-146); assay: ELISA
T1 construct: made and purified at GSK; also called Interleukin-13; rhIL-13

[2] = target: T2, recombinant E. coli-expressed human IL-4 (human, UniProt P05112 25-153); assay: ELISA
T2 construct: made and purified at GSK; also called Interleukin-4; rhIL-4
T2 sequence: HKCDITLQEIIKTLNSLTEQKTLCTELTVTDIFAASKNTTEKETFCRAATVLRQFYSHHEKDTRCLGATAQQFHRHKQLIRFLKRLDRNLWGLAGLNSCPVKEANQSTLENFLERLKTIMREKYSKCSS

[3] = target: T3, recombinant Sf21-expressed human IL-5 (human, UniProt P05113 20-134); assay: SPR
[4] = target: T3, recombinant Sf21-expressed human IL-5; assay: ELISA
[5] = target: T1, recombinant E. coli-expressed human …; assay: SPR
[6] = target: T1, recombinant E. coli-expressed human …; assay: SPR; remark: listed apart in the source
[7] = target: T1, recombinant E. coli-expressed human …; assay: SPR; remark: listed apart in the source
[8] = target: T4, recombinant E. coli-expressed cynomolgus IL-13 (cynomolgus, UniProt Q0PW92 21-132); assay: SPR
T4 construct: also called cyno IL-13

[9] = target: T5, recombinant E. coli-expressed cynomolgus IL-4 (cynomolgus, UniProt P79339 25-153); assay: SPR
T5 construct: also called cyno IL-4
T5 sequence (looked up): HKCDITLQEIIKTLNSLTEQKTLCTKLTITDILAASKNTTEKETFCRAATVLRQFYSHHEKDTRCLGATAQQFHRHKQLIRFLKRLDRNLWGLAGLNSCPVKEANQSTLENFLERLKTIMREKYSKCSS

[10] = target: T4, recombinant E. coli-expressed …; assay: SPR; remark: listed apart in the source
[11] = target: T1, recombinant E. coli-expressed human …; assay: SPR; remark: listed apart in the source
[12] = target: T4, recombinant E. coli-expressed …; assay: SPR; remark: listed apart in the source
[13] = target: T1, recombinant E. coli-expressed human …; assay: SPR exp 1
[14] = target: T1, recombinant E. coli-expressed human …; assay: SPR exp 2
[15] = target: T1, recombinant E. coli-expressed human …; assay: SPR exp 1; remark: listed apart in the source
[16] = target: T2, recombinant E. coli-expressed human IL-4; assay: SPR exp 1
[17] = target: T1, recombinant E. coli-expressed human …; assay: SPR exp 3
[18] = target: T1, recombinant E. coli-expressed human …; assay: SPR exp 1; remark: listed apart in the source
[19] = target: T1, recombinant E. coli-expressed human …; assay: SPR, purified
[20] = target: T1, recombinant E. coli-expressed human …; assay: SPR, purified; remark: listed apart in the source
[21] = target: T1, recombinant E. coli-expressed human …; assay: SPR stoichiometry
[22] = target: T1, recombinant E. coli-expressed human …; assay: SPR, no IL-4 bound
[23] = target: T1, recombinant E. coli-expressed human …; assay: cell-based or functional assay
[24] = target: T1, recombinant E. coli-expressed human …; assay: ELISA, IL-13 binding to IL13Ralpha2/Fc
[25] = target: T6, recombinant human IGF-1R-his tag (human, UniProt P08069 31-932); assay: ELISA
T6 construct: bought; also called rhIGF-1R

recombinant human VEGF = target: T7, recombinant human VEGF (human, UniProt P15692-4 27-191); assay: ELISA
T7 construct: also called VEGF165; hVEGF165

[26] = target: T1, recombinant E. coli-expressed human …; assay: SPR; remark: listed apart in the source
[27] = target: T2, recombinant E. coli-expressed human IL-4; assay: ELISA, IL-4 binding to IL4Ralpha-Fc

B1: Mepolizumab (Anti-human IL-5 monoclonal antibody) (antibody, human IgG1, kappa, V domains shown)
VH: QVTLRESGPALVKPTQTLTLTCTVSGFSLTSYSVHWVRQPPGKGLEWLGVIWASGGTDYNSALMSRLSISKDTSRNQVVLTMTNMDPVDTATYYCARDPPSSLLRLDYWGRGTLVTVSS
VL: DIVMTQSPDSLAVSLGERATINCKSSQSLLNSGNQKNYLAWYQQKPGQPPKLLIYGASTRESGVPDRFSGSGSGTDFTLTISSLQAEDVAVYYCQNVHSFPFTFGGGTKLEIKR
notes: also called IL-5 mAb; anti-human IL5 mAb
- binding result [1]: no binding
- binding result [2]: no binding
- Kd [3]: 0.34 nM

B2: Anti-human IL-13 monoclonal antibody (also known as 586) (antibody, human IgG1, kappa)
heavy: not shown
light: DIVMTQSPLSLPVTPGEPASISCRSSQNIVHINGNTYLEWYLQKPGQSPRLLIYKISDRFSGVPDRFSGSGSGTDFTLKISRVEADDVGIYYCFQGSHVPWTFGQGTKLEIKRTVAAPSVFIFPPSDEQLKSGTASVVCLLNNFYPREAKVQWKVDNALQSGNSQESVTEQDSKDSTYSLSSTLTLSKADYEKHKVYACEVTHQGLSSPVTKSFNRGEC
notes: also called Anti-human IL-13 mAb; anti-IL13 mAb
- binding result [4]: no binding
- Kd [5]: 0.38 nM
- Kd [6]: 0.41 nM
- Kd [7]: 0.38 nM
- Kd [8]: 0.222 nM
- koff [8]: 0.000105 s⁻¹
- kon [8]: 474000 M⁻¹ s⁻¹
- binding result [9]: no binding
- Kd [10]: 0.119 nM
- koff [10]: 6.55e-05 s⁻¹
- kon [10]: 550000 M⁻¹ s⁻¹
- Kd [11]: 0.377 nM
- koff [11]: 0.000378 s⁻¹
- kon [11]: 1e+06 M⁻¹ s⁻¹
- Kd [12]: 0.171 nM
- koff [12]: 8.22e-05 s⁻¹
- kon [12]: 479000 M⁻¹ s⁻¹
- Kd [13]: 0.57 nM
- koff [13]: 0.00049 s⁻¹
- kon [13]: 860000 M⁻¹ s⁻¹
- Kd [14]: 0.67 nM
- koff [14]: 0.000611 s⁻¹
- Kd [15]: 0.28 nM
- binding result [16]: no binding (tested: 256 nM)
- Kd [17]: 0.547 nM
- Kd [18]: 0.28 nM
- Kd [19]: 0.43 nM
- Kd [20]: 0.41 nM
- Stoichiometry [21]: 1.8
- Kd [22]: 0.366 nM
- koff [22]: 0.000368 s⁻¹
- kon [22]: 1.01e+06 M⁻¹ s⁻¹
- Mean IC50 (whole blood phospho-STAT6) [23]: 1.47 nM
- IC50 [24]: 6.43 nM

B3: 586H-210 GS removed (bispecific antibody, human IgG1, kappa)
heavy: not shown
light: DIVMTQSPLSLPVTPGEPASISCRSSQNIVHINGNTYLEWYLQKPGQSPRLLIYKISDRFSGVPDRFSGSGSGTDFTLKISRVEADDVGIYYCFQGSHVPWTFGQGTKLEIKRTVAAPSVFIFPPSDEQLKSGTASVVCLLNNFYPREAKVQWKVDNALQSGNSQESVTEQDSKDSTYSLSSTLTLSKADYEKHKVYACEVTHQGLSSPVTKSFNRGEC
notes: also called BPC1601
- binding result [25]: no binding
- binding result (recombinant human VEGF): no binding
- Kd [8]: 0.044 nM
- koff [8]: 2.24e-05 s⁻¹
- kon [8]: 507000 M⁻¹ s⁻¹
- binding result [9]: binds
- Kd [26]: 0.44 nM
- Kd [17]: 0.438 nM
- IC50 [27]: 36.2 nM
